Data from the supplement of paper PMC10567573.
± gives the standard deviation.

Experiment: protein stability index of a GFP-peptide fusion (GPS, HEK-293T) (PSI 1-6); higher = more stable
Conditions: c terminus: a fixed tail appended
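Note: 24-mer peptide tiles fused after GFP, lentivirally expressed, FACS-sorted into six equal bins by GFP/DsRed ratio, decoded by Illumina sequencing, PSI is the read-weighted mean bin number.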

Sequence | protein stability index (treatment: DMSO) | protein stability index (treatment: MLN4924 1 uM, 8 h)
RYFSAWAEDDHMLIQNEYRNGGSL [WEE1] | 2.67 ± 0.5 | 2.32 ± 0.4
RFLLYTNENPNNFQILLLSDPSTI [PNLIPRP1] | 2.94 ± 1 | 2.57 ± 0.61
RLRLQRTGGLGGERERQPCGDGNT [SOAT2] | 4.59 ± 0.099 | 4.49 ± 0.14
AALDGGRSLEELTRLAFELFAEEQ [LPCAT4] | 2.91 ± 0.24 | 3.33 ± 0.38
LSIQVEEERRAREWLLDAPELPEG [ZMAT5] | 4.71 ± 0.34 | 5.06 ± 0.41
QCPEPPIVVHCSAGIGRTGTFCSL [PTPN9] | 2.17 ± 0.26 | 2.14 ± 0.12
APPRRLRSRKVSCPLTRSNGDLSR [FCHO1] | 4.16 ± 0.17 | 4.34 ± 0.062
SVSLNKTARPFGAPPPADSAPQQN [PDLIM7] | 4.42 ± 0.11 | 4.46 ± 0.13
KPVGRQACDLQPCPTEPPDDSCQD [ADAMTSL2] | 5.46 ± 0.34 | 5.76 ± 0.075
QPCSIVDVEFLPVYHPSPEESRDP [LPCAT4] | 4.84 ± 0.28 | 4.88 ± 0.38
GQCQVLVQRSPWLMMRMGILGRGL [TCAP] | 2.2 ± 0.14 | 2.14 ± 0.16
RKRKQSGHSPARAGKQRMKEKEQE [DDIT3] | 5.15 ± 0.34 | 5.51 ± 0.38
NERDSSEPGNFIPLFTPQSPVTAT [CDC25A] | 4.65 ± 0.48 | 4.65 ± 0.33
FDRNADGYIDPEELAEIFRASGEH [TNNC2] | 5.32 ± 0.21 | 5.25 ± 0.2
